Assay results from patent publication US20240002497A1 (Merck Sharp & Dohme, published 2024).
Changes are numbered by the printed parent chain. Names and notes keep the numbering of the source. Like-named read-outs stand apart in the source and are kept apart here. Values belong to the binder of their own block, whether it stands above or below them.

How the values were obtained:
[1] = molecular target: T1, huNav1.7α+β1 (human, UniProt Q15858 1-1988; Q07699 19-218); assay: binding FACS, HEKa/β1 cells
T1 construct: also called huNav1.7-beta1; HEKa/β1
Summary of the method: (§1)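 Cells at 1×10^5 per well incubated 30 min at 4 °C with purified FLAG3-tagged ISVD in FACS buffer (PBS, 10% FBS, NaN₃); bound ISVD detected via murine anti-Flag by flow cytometry, dead cells excluded with 1 μg/mL propidium iodide.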

[2] = molecular target: T2, huNav1.7α+β1-β2-β3 (human, UniProt Q15858 1-1988; Q07699 19-218; O60939 30-215; Q9NY72 23-215); assay: binding FACS, CHO FlpIn cells
T2 construct: 5N11S variant; also called huNav1.7-beta1-beta2-beta3; huNav1.7α+Navβ1-Navβ2-Navβ3
Summary of the method: as §1

[3] = molecular target: T3, huNav1.7α (human, UniProt Q15858 1-1988); assay: binding FACS, HEKa cells
T3 construct: HEK cells expressing the α subunit alone; also called HEKa; HEK huNav1.7α
Experimental: (§2) Binding of the ISVDs to cell-expressed Nav1.7α was detected via murine anti-Flag (Sigma, catalog #F1804). Briefly, cells were resuspended in FACS buffer (PBS, 10% FBS, NaN₃) and transferred to a 96-well V-bottom plate at 1×10^5 cells/well. Purified FLAG3-tagged ISVD was diluted in FACS buffer and added to the cells for 30 minutes at 4° C. […] Prior to the read-out, the samples were resuspended in 1 μg/mL propidium iodide (Sigma, catalog #P4170) to exclude dead cells. Between each step, the cells were centrifuged for 5 minutes at 200 grams and washed with 100 μL/well FACS buffer.

[4] = molecular target: T4, huNav1.7α (human Nav1.7 alpha subunit, expressed without β subunits) (human, UniProt Q15858 1-1988); assay: binding FACS, HEKa cells
T4 construct: also called HEK293 human Nav1.7α; HEKa Nav1.7α

[5] = molecular target: T5, huNav1.7α + β1 (human Nav1.7α co-expressed with Navβ1) (human, UniProt Q15858 1-1988; Q07699 19-218); assay: binding FACS, HEKa/β1 cells
T5 construct: also called HEK293 human Nav1.7α + β1; HEKa/β1 Nav1.7α

[6] = molecular target: huNav1.7α + β1 on HEK cells (human, UniProt Q15858 1-1988; Q07699 19-218); assay: binding FACS, HEK cells (HEKa/b1)
[7] = molecular target: T6, muNav1.7α (murine, UniProt Q62205 1-1984); assay: binding FACS, HEK JmpIn
T6 construct: HEK JmpIn cells; also called murine Nav1.7α
Experimental: as §2

[8] = molecular target: T7, huNav1.7α + β1-β2-β3 (human, UniProt Q15858 1-1988; A5A6L6 19-218; O60939 30-215; Q2KI11 23-215); assay: binding FACS, CHO FlpIn
T7 construct: also called huNav1.7-beta1-beta2-beta3; huNav1.7-β1-β2-β3
Summary of the method: as §1

[9] = molecular target: T8, rhNav1.7α + β1-β2-β3 (rhesus monkey); assay: binding FACS, CHO FlpIn
T8 construct: also called rhNav1.7-beta1-beta2-beta3; rhNav1.7-β1-β2-β3
Summary of the method: as §1

[10] = molecular target: T9, rhNav1.7α+β1-β2-β3 (rhesus monkey α subunit with human β …); assay: binding FACS, CHO FlpIn cells
T9 construct: P2A cleaves it into α, β1, β2, β3; also called rhNav1.7-beta1-beta2-beta3

[11] = molecular target: rhNav1.7α (rhesus monkey, UniProt Q15858 1-1988 (human entry)); assay: cell-based or functional assay
[12] = molecular target: T3, huNav1.7α; assay: cell-based or functional assay
[13] = molecular target: T1, huNav1.7α+β1; assay: binding FACS, HEKa/β1 cells; remark: listed apart in the source
[14] = molecular target: T3, huNav1.7α; assay: binding FACS, HEKa cells; remark: listed apart in the source

EC50 [1]: 1 nM
EC50 [2]: 1.9 nM
EC50 [3]: 1.5 nM
B1: F010301563 (VHH)
VHH: EVQLVESGGGLVQAGGSLRLSCAASGRILRIGYMRWHRQGAGKQREFVARITDDSATGYADSVKGRFTISRDNAKNTVYLQMNNLNPEDTAVYYCEALVTASVRGGSIHSGTYWGRGTLVTVSS
notes: also called F0103387G05(D23A, D58G); F0103301563

EC50 [1]: 1.2 nM
EC50 [2]: 2.5 nM
EC50 [3]: 2.2 nM
B2: F010301561 (VHH)
VHH: B1 VHH with D53G, G58D
notes: vs 387G05: D23A, D53G

EC50 [1]: 0.92 nM
EC50 [2]: 1.8 nM
EC50 [3]: 0.87 nM
B3: F010301559 (VHH)
VHH: B1 VHH with D54G
notes: vs 387G05: D23A, D54G, D58G

EC50 [1]: 1.7 nM
EC50 [2]: 3.5 nM
EC50 [3]: 1.6 nM
B4: F010301350 (VHH)
VHH: B1 VHH with A23D, G58V
notes: vs 387G05: D58V

Bmax [4]: 100%
EC50 [4]: 3 nM
EC50 [5]: 1.8 nM
B5: F010301849 (VHH)
VHH: B1 VHH with L11V, A14P, G40A, A41P, N84S, N86R, V92L, R116Q
notes: also called F0103387G05(L11V, A14P, D23A, G40A, A41P, D58G, N82bS, N83R, V89L, R105Q)

EC50 [6]: 94 nM
B6: F010301639 (VHH)
VHH: EVQLVESGGGVVQPGGSLRLSCAASGSIFNINSMAWYRQAPGKQRELVASSTNGGSTNYADSVKGRFTISRDNAKRTVYLQMNSLRPEDTALYYCNALLQPSIYDISRTYWGQGTLVTVSS
notes: also called F0103275B05(R76_V78insT)(L11V, R39Q, T83R, V89L)

EC50 [6]: 65 nM
B7: F010301640 (VHH)
VHH: B6 VHH with Q39R
notes: also called F0103275B05(R76_V78insT)(L11V, T83R, V89L)

Bmax [7]: 30%
EC50 [7]: 21 nM
Bmax [8]: 100%
EC50 [8]: 3.5 nM
Bmax [9]: 97%
EC50 [9]: 6.8 nM
B8: F010302355 (VHH)
VHH: EVQLVESGGGVVQPGGSLRLSCAASHRAFIRDVFTGWYRRAPGKQRELVARIYEGGNTQYADSVKGRFTISRDNAKKTVYLQMNSLRPEDTALYYCLFSGTISTGREYRSGDYWGQGTLVTVSS

EC50 [10]: 170 nM
2-pulse IC50 [M], P1 [11]: 5e-06 M
2-pulse IC50 [M], P2 [11]: 4e-06 M
2-pulse IC50 [M], P1 [12]: 2e-06 M
2-pulse IC50 [M], P2 [12]: 1e-06 M
B9: F010300316 (VHH)
VHH: EVQLVESGGGLVQPGGSLRLSCAASGSIFNINSMAWYRRAPGKQRELVASSTNGGSWNYADSVKGRFTISRDNAKRVYLQMNSLTPEDTAVYYCNALLQPSIYDISRTYWGQGTLVTVSS
notes: vs F0103275B05: T57W

EC50 [10]: 23 nM
EC50 [13]: 18 nM
EC50 [14]: 22 nM
B10: F010301459 (VHH)
VHH: B9 VHH with S27P, I28V, S33R, N53P, S56D, W57T, N95R
notes: vs F0103275B05: S27P, I28V, S33R, N53P, S56D, N93R

EC50 [10]: 44 nM
EC50 [13]: 38 nM
EC50 [14]: 5.8 nM
B11: F010300796 (VHH)
VHH: B9 VHH with S27P, I28V, S33R, S50Y, N53P, S56D, W57T
notes: vs F0103275B05: S27P, I28V, S33R, S50Y, N53P, S56D

EC50 [10]: 32 nM
EC50 [13]: 26 nM
EC50 [14]: 15 nM
B12: F010301460 (VHH)
VHH: B9 VHH with S27P, I28V, S33R, S50Y, N53P, W57T, N95R
notes: vs F0103275B05: S27P, I28V, S33R, S50Y, N53P, N93R

EC50 [10]: 23 nM
EC50 [13]: 22 nM
EC50 [14]: 35 nM
B13: F010301462 (VHH)
VHH: B9 VHH with S27P, I28V, S33R, S50Y, N53P, S56D, W57T, N95R
notes: vs F0103275B05: S27P, I28V, S33R, S50Y, N53P, S56D, N93R

EC50 [10]: 24 nM
EC50 [13]: 21 nM
EC50 [14]: 28 nM
B14: F010301461 (VHH)
VHH: B9 VHH with S33R, S50Y, S56D, W57T, N95R
notes: also called F0103275B05(S33R, S50Y, S56D, N93R)

EC50 [10]: 40 nM
2-pulse IC50 [M], P1 [11]: 6e-06 M
2-pulse IC50 [M], P2 [11]: 3e-06 M
2-pulse IC50 [M], P1 [12]: 5e-06 M
2-pulse IC50 [M], P2 [12]: 4e-06 M
B15: F010300468 (VHH)
VHH: B9 VHH with W57T, N95R
notes: vs F0103275B05: N93R; also called F0103275B05(N93R)+FLAG3-HIS6; F103275B05(N93R)

EC50 [10]: 40 nM
EC50 [13]: 60 nM
EC50 [14]: 8.5 nM
B16: F010301000 (VHH)
VHH: B9 VHH with S27P, I28V, S33R, S50Y, N53P, S56D, W57T, T108I
notes: vs F0103275B05: S27P, I28V, S33R, S50Y, N53P, S56D, T101I
